Experimental data: patent US20250320288A1 (ELIXIRON IMMUNOTHERAPEUTICS HONG KONG, published 2025)

Target: recombinant human IFN-γ (human)
Experiment: cell-based or functional assay

Sequence of recombinant human IFN-γ (human) (P01579 24-161): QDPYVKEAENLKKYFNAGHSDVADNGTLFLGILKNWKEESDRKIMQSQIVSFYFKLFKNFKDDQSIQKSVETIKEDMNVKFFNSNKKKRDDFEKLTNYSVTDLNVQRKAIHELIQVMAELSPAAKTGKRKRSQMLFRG

B1: EI-001 (2A6Q), human monoclonal anti-IFN-γ antibody (antibody, human IgG1, lambda, V domains shown)
VH: EVQLVESGGGLVKPGDSLTVSCVASGFTFSNYFIHWVRQAPGKGLEWVATISGRTKYMFYSDSLRGRFTVSRDNAQNSVYLHMSSLRGEDTALYYCVRGYDHSDSNSAADLLHWGRGTLVTVSS
VL: NFMLTQPLSVSGYPGKTIVISCVRSSGSVASHYVQWFQQRPGSAPAMVIYEDSHRPSGIPDRFSGSVDASSNSASLTISGLKTEDEADYFCQSYYGNNQVLFGGGTKLTVLG
With B1 the “EC50 of EI-001 restoring viability of human primary melanocytes cultured with 30 ng/mL IFN-γ (CellTiter-Glo, 72 hrs)” value was 0.00521 µg/mL and the “EC50 restoring melanogenesis (melanin content, absorbance at 470 nm) of human primary melanocytes cultured with 20 ng/mL IFN-γ for 7 days” value was 0.129 µg/mL.
